The values that follow come from patent US20250121087A1, “ANTIBODY-DRUG CONJUGATES COMPRISING ANTI-B7-H3 ANTIBODIES” (priority 2020, published 2025).

Test [1] addresses T1, human 2Ig B7-H3 (Homo sapiens, UniProt Q5ZPR3).
T1 construct: purchased Acrobiosystems
T1 sequence (Q5ZPR3 29-316 isoform Q5ZPR3-2 limits assumed): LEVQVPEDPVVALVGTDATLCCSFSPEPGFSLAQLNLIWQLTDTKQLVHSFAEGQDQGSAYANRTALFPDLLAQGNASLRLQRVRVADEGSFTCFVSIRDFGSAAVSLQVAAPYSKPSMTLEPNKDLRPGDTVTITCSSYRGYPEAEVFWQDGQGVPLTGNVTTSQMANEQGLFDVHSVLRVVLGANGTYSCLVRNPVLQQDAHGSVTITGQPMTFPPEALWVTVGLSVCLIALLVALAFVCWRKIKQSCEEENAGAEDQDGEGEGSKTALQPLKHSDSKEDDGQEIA
Kind of test: Biacore (SPR) binding kinetics, human 2Ig B7-H3. The note with it: analyte Human 2IgB7-H3, antibody as immobilized ligand. The protocol: (§1) The binding affinity of the purified anti-B7-H3 monoclonal antibodies was determined by BLI-based OCTET or SPR-based Biacore. Further the binding kinetics of the antibodies binding to human, cynomolgus monkey and mouse B7-H3 antigen are shown in Table 37.
(§2) A Biacore 8K (GE Life science) instrument was used to measure the binding kinetics about several B7-H3 variants (analyte) binding to various mAbs (ligands). Antibodies were captured onto the immobilized anti-human Fc antibody (GE Life science). Anti-Fc antibodies were immobilized to approximately 7,000 RU on CM5 sensor chip using a standard amine coupling method on both active cell and reference cell. For binding kinetic measurements, the HBS-EP+ was used for running buffer (10 mM Hepes, pH7.4, 150 mM NaCl, 3 mM EDTA, 0.05% polysorbate20). Anti-B7-H3 antibodies were diluted to 0.5 ug/mL in running buffer and injected for 110 s on active cells only. After capturing ligand, various B7-H3 antigens were analyzed for 120 s and the dissociation was monitored for 600 s at a flow rate of 30 ul/min. […] Kinetic information was calculated by fitting data to a 1:1 binding model using Biacore Insight Evaluation software (GE Life Science) to determine ka (association constant), kd (dissociation constant), and KD (equilibrium dissociation constant).
Background: In SPR one partner is held on a chip, and binding of the other changes the refractive index at the surface.

The test system of test [2] is cynomolgus monkey B7-H3. Description: Biacore (SPR) binding kinetics, cynomolgus monkey B7-H3. The note with it: analyte Cyno B7-H3, antibody as immobilized ligand. The protocol: as §1, §2
Test [3] deals with T2, mouse B7-H3 (Mus musculus, UniProt Q8VE98).
T2 construct: purchased Sino biological Inc
T2 sequence (Q8VE98 29-316): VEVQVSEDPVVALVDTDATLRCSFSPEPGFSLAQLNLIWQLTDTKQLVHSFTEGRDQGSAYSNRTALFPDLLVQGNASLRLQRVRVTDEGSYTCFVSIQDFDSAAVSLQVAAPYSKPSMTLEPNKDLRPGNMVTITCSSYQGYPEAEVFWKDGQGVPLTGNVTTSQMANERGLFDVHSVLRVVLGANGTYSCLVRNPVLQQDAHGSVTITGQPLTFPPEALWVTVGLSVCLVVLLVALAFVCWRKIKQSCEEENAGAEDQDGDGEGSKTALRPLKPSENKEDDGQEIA
Description: Biacore (SPR) binding kinetics, mouse B7-H3. The note with it: analyte Mouse B7-H3, antibody as immobilized ligand. The protocol: as §1, §2

Test [4] addresses T3, human 4Ig B7-H3 (Homo sapiens, UniProt Q5ZPR3).
T3 construct: purchased Y-Biologics Inc
T3 sequence (Q5ZPR3 29-534): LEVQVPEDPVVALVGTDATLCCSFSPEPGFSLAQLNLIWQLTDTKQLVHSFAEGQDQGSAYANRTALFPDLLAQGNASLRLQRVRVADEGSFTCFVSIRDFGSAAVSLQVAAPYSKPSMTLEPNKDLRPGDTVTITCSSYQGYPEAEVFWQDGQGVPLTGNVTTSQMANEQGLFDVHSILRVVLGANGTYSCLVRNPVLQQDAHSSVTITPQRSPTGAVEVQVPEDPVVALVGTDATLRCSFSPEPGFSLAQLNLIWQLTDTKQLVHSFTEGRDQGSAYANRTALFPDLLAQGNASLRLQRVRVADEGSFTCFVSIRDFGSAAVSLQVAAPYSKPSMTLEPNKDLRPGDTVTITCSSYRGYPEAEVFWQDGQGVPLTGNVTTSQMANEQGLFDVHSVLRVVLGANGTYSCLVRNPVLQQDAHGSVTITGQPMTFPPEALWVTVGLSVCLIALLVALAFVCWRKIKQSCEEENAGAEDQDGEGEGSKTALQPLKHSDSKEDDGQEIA
Kind of test: Biacore (SPR) binding kinetics, human 4Ig B7-H3. The note with it: analyte Human 4IgB7-H3, antibody as immobilized ligand. The protocol:
as §1, §2

The target in test [5] is T4, B7-H3 (Homo sapiens, UniProt Q5ZPR3).
T4 sequence (Q5ZPR3 29-534): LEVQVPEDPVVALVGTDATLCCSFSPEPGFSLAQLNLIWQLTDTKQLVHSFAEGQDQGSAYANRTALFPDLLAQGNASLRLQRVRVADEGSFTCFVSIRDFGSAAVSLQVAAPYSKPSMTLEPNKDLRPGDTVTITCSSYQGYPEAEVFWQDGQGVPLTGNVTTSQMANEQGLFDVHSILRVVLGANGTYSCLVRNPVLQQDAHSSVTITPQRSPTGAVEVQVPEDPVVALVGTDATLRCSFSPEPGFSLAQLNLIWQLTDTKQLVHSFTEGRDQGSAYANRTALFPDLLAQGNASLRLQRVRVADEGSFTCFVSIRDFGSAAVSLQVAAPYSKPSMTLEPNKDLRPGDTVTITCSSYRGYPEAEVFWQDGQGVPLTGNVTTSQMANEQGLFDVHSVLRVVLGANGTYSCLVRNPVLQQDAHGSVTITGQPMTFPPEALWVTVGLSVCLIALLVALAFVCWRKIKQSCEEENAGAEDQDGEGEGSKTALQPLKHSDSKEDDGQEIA
As to conditions: Table 1, development state of B7-H3 ADC; cited from earlier work.

B1: AB2 (antibody, V domains shown)
VH: QVQLVESGAEVKKPGASVKLSCKASGYTFSSYWMHWVRQAPGQRLEWMGEINPGNGHTNYNEKFKSRVTITVDKSASTAYMELSSLRSEDTAVYYCVADPRRPKVPTALFVYWGQGTLVTVSS
VL: DIQMTQSPSSVSASVGDRVTISCRASQGIGTWLAWYQQKPGKAPRLLIYAASSLDSGVPSRFSASGSGTDFTLTISSLQPEDFATYYCQQAINFPITFGQGTRLEIK
With B1, the “Ka” value came to 206000 M⁻¹ s⁻¹ in test [1], 481000 M⁻¹ s⁻¹ in test [2], 408000 M⁻¹ s⁻¹ in test [3] and 446000 M⁻¹ s⁻¹ in test [4]. The “Kd” value is 0.00515 s⁻¹ in test [1], 0.000442 s⁻¹ in test [2], 0.0193 s⁻¹ in test [3] and 0.000199 s⁻¹ in test [4].

B2: Enoblituzumab (antibody, chains of the INN, looked up)
heavy: EVQLVESGGGLVQPGGSLRLSCAASGFTFSSFGMHWVRQAPGKGLEWVAYISSDSSAIYYADTVKGRFTISRDNAKNSLYLQMNSLRDEDTAVYYCGRGRENIYYGSRLDYWGQGTTVTVSSASTKGPSVFPLAPSSKSTSGGTAALGCLVKDYFPEPVTVSWNSGALTSGVHTFPAVLQSSGLYSLSSVVTVPSSSLGTQTYICNVNHKPSNTKVDKRVEPKSCDKTHTCPPCPAPELVGGPSVFLLPPKPKDTLMISRTPEVTCVVVDVSHEDPEVKFNWYVDGVEVHNAKTKPPEEQYNSTLRVVSVLTVLHQDWLNGKEYKCKVSNKALPAPIEKTISKAKGQPREPQVYTLPPSREEMTKNQVSLTCLVKGFYPSDIAVEWESNGQPENNYKTTPLVLDSDGSFFLYSKLTVDKSRWQQGNVFSCSVMHEALHNHYTQKSLSLSPG
light: DIQLTQSPSFLSASVGDRVTITCKASQNVDTNVAWYQQKPGKAPKALIYSASYRYSGVPSRFSGSGSGTDFTLTISSLQPEDFATYYCQQYNNYPFTFGQGTKLEIKRTVAAPSVFIFPPSDEQLKSGTASVVCLLNNFYPREAKVQWKVDNALQSGNSQESVTEQDSKDSTYSLSSTLTLSKADYEKHKVYACEVTHQGLSSPVTKSFNRGEC
Take B2: the Kd in test [5] is 7 nM.
